Data: US20220064263A1 (published 2022)

T1: canine IL4 (canine, UniProt O77762 25-132, biotinylated (site not stated))
T1 construct: Biotinylated and captured on streptavidin sensor tips
T1 sequence (looked up): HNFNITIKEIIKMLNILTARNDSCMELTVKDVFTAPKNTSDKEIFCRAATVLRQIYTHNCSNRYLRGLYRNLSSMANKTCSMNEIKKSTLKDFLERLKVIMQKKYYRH


Experiments:
human C1q = target: T2, human C1q (human, UniProt P02745 23-245; P02746 28-253; P02747 29-245); experiment: biosensor; fusion captured on IL4-bound tips, human C1q at 250 µg/mL
T2 construct: Bought protein complex; the three subunit chains come from general knowledge; also called C1q complex
T2 sequence (P02745 23-245 limits assumed, chain 1 of 3): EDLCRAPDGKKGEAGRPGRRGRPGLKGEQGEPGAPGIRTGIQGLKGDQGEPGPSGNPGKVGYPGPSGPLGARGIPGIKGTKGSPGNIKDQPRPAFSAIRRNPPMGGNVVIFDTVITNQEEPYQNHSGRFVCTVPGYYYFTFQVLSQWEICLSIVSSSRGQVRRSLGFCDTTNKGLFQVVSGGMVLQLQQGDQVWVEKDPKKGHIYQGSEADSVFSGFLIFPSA
T2 sequence (P02746 28-253 limits assumed, chain 2 of 3): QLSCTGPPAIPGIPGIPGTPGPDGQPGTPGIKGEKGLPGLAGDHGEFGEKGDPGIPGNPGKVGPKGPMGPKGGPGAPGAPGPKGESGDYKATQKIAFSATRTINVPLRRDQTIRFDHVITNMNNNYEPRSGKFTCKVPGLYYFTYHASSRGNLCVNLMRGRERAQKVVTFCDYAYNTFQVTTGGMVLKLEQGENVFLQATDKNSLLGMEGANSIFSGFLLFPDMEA
T2 sequence (P02747 29-245 limits assumed, chain 3 of 3): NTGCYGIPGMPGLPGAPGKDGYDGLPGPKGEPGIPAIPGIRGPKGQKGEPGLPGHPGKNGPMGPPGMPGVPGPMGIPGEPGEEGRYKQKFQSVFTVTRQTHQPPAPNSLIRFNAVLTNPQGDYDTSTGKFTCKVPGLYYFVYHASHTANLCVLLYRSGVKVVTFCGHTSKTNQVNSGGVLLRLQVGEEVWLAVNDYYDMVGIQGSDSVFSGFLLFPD
Description: (§1) A biosensor binding analysis was performed to determine the binding affinity of C1q to IL13R(ECD)-IL4R(ECD)-wild type canine IgG-B Fc (SEQ ID NO: 271) compared to IL13R(ECD)-IL4R(ECD)-variant canine IgG-B Fc (SEQ ID NO: 202). Briefly canine IL4 was biotinylated and captured to streptavidin sensor tips. Either IL13R(ECD)-IL4R(ECD)-wild type canine IgG-B Fc (25 μg/mL) or IL13R(ECD)-IL4R(ECD)-variant canine IgG-B Fc (25 μg/mL) was complexed to the IL4-bound biosensors. Subsequently, the complex was used to bind human C1q at 250 μg/mL (Catalog No. 204876-1MG; Sigma Aldrich). The ability of human C1q to bind either complex was measured. Reduced binding between human C1q and IL13R(ECD)-IL4R(ECD)-variant canine IgG-B Fc was observed when compared to IL13R(ECD)-IL4R(ECD)-wild type canine IgG-B Fc.

canine IL4 = target: T1, canine IL4; experiment: biosensor; biotinylated canine IL4 on streptavidin tips, fusion at 25 µg/mL
Description: as §1

binding result (human C1q)	binding result (canine IL4)	Binder
binds	binds	IL13R(ECD)-IL4R(ECD)-wild type canine IgG-B Fc (Fc fusion, also called fusion protein comprising wild-type canine IgG-B Fc) TETQPPVTNLSVSVENLCTVIWTWDPPEGASPNCTLRYFSHFDNKQDKKIAPETHRSKEVPLNERICLQVGSQCSTNESDNPSILVEKCTPPPEGDPESAVTELQCVWHNLSYMKCTWLPGRNTSPDTNYTLYYWHSSLGKILQCEDIYREGQHIGCSFALTNLKDSSFEQHSVQIVVKDNAGKIRPSFNIVPLTSHVKPDPPHIKRLFFQNGNLYVQWKNPQNFYSRCLSYQVEVNNSQTETNDIFYVEEAKCQNSEFEGNLEGTICFMVPGVLPDTLNTVRIRVRTNKLCYEDDKLWSNWSQAMSIGENTDPTGGGSGSGSVKVLHEPSCFSDYISTSVCQWKMDHPTNCSAELRLSYQLDFMGSENHTCVPENREDSVCVCSMPIDDAVEADVYQLDLWAGQQLLWSGSFQPSKHVKPRTPGNLTVHPNISHTWLLMWTNPYPTENHLHSELTYMVNVSNDNDPEDFKVYNVTYMGPTLRLAASTLKSGASYSARVRAWAQTYNSTWSDWSPSTTWLNYYEPKRENGRVPRPPDCPKCPAPEMLGGPSVFIFPPKPKDTLLIARTPEVTCVVVDLDPEDPEVQISWFVDGKQMQTAKTQPREEQFNGTYRVVSVLPIGHQDWLKGKQFTCKVNNKALPSPIERTISKARGQAHQPSVYVLPPSREELSKNTVSLTCLIKDFFPPDIDVEWQSNGQQEPESKYRTTPPQLDEDGSYFLYSKLSVDKSRWQRGDTFICAVMHEALHNHYTQESLSHSPGK
binds	binds	IL13R(ECD)-IL4R(ECD)-variant canine IgG-B Fc (Fc fusion, also called fusion protein comprising variant canine IgG-B Fc K(93)R) TETQPPVTNLSVSVENLCTVIWTWDPPEGASPNCTLRYFSHFDNKQDKKIAPETHRSKEVPLNERICLQVGSQCSTNESDNPSILVEKCTPPPEGDPESAVTELQCVWHNLSYMKCTWLPGRNTSPDTNYTLYYWHSSLGKILQCEDIYREGQHIGCSFALTNLKDSSFEQHSVQIVVKDNAGKIRPSFNIVPLTSHVKPDPPHIKRLFFQNGNLYVQWKNPQNFYSRCLSYQVEVNNSQTETNDIFYVEEAKCQNSEFEGNLEGTICFMVPGVLPDTLNTVRIRVRTNKLCYEDDKLWSNWSQAMSIGENTDPTGGGSGSGSVKVLHEPSCFSDYISTSVCQWKMDHPTNCSAELRLSYQLDFMGSENHTCVPENREDSVCVCSMPIDDAVEADVYQLDLWAGQQLLWSGSFQPSKHVKPRTPGNLTVHPNISHTWLLMWTNPYPTENHLHSELTYMVNVSNDNDPEDFKVYNVTYMGPTLRLAASTLKSGASYSARVRAWAQTYNSTWSDWSPSTTWLNYYEPKRENGRVPRPPDCPKCPAPEMLGGPSVFIFPPKPKDTLLIARTPEVTCVVVDLDPEDPEVQISWFVDGKQMQTAKTQPREEQFNGTYRVVSVLPIGHQDWLKGKQFTCRVNNKALPSPIERTISKARGQAHQPSVYVLPPSREELSKNTVSLTCLIKDFFPPDIDVEWQSNGQQEPESKYRTTPPQLDEDGSYFLYSKLSVDKSRWQRGDTFICAVMHEALHNHYTQESLSHSPGK
